Laboratory results as given in the nanobody polyreactivity screen of Harvey et al. (2022).

Assay: yeast display, Sf9 membrane polyspecificity reagent, FACS + sequencing; frameworks hold sequencing errors
How it was run: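 Galactose induction of a Saccharomyces cerevisiae BJ5465 synthetic nanobody display library ran 36–48 hours. The cells were then stained for 1 hour at 4 °C with 10% biotinylated, detergent-solubilized Sf9 membrane reagent, pulled down on streptavidin microbeads and FACS-sorted into low and high (top ~1%) gates on expression and reagent-binding fluorescence. Labels for polyreactivity follow the gate of origin.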

Sequence | polyreactivity (PSR sort gate)
QVQLVESGGGLVQAGGRLRLSCAASGITFYDYAMGWYRQAHGKERELVAVITRRGGSTYYAHSVKGRFTISRDNAKNTVYLQMNSLKPEDTAVYYCNADRTAPERYSRVPSSDSWGQGTQVTVSS | high polyreactivity
QVQLVESGGGLVQAGGSLRLSCAASGRTFTHYAMGWYRQAPGKERELVAAISGRGGNTYYADSVKGRFTISRDNAKNTVYLQMNSLKPEDTAVYYCNTAYVAKGYGYWGQGTQVTVSS | high polyreactivity
QVQLVESGGGLVQAGGSLRLSCAASGYTSYTYTMGWYRQAPGKERELVAAISRRSDTTYADSVKGRFTISRDNAKNTVYLQMNSLKPEDTAVYYCAAVRVSYRSLSKSYYWGQGTQVTVSS | high polyreactivity
QVQLVESGGGLVQAGGSLRLSSAASGSTFPYVKGWYRQAPGKESEFVAAISQRTGSTYYADSVKGRFTISRDNAKNTVYLQMNSLKPEDTAVYYCAKPGYLRPSRYDYWGQGTQVTVSS | high polyreactivity
QVQLVESGGGLVQAGGSLRLSCAASGFTFYRYAMGWYRKAPGKERELVAAISSSGGTTYYADSVKVRFTISRDHAKNTVYLQMNRLKPEDTAVYYCAARGWPNWGWGYDYWGQGTQVTVSS | high polyreactivity
QVQLVESGGGLVQAGGSLRLSCAASGFIFRPYAMGWYRQAPGKERELVAAISFSGGSTYYADSVKGRFTISRDNAKNTVYLQMNSLIPEDTAVYYCAAVYYFSYWLGPDDYWGQGTQVTVSS | low polyreactivity
QVQLVEAGGCLVQAGGSLRLSCAASGRIFRFYTMGWYRQAPGNERELVAAIRYSSVSTYYADSVKGRFTISRDNAKNTVYLQMNSLKPEDTAVYYCDAVHRSYVKTYNYWGLGTQVTVSS | high polyreactivity
QVQLVESGGGLVQAGGSLRLSCAASGRTFLRYAMGWSRQAPGKERELVAAISSRGGRTYYADSVKGRFTISRDNAKNTVYLQMNILKPEDTAVYYCNARYSPRTGRGRHVTYYYWGQGTQVTVSS | high polyreactivity
QVQLVESGGGLVQAGGSLRLSCASSGITFNLNDMGWYRQAPGKERELVAAITSGGNTSYADSVKGRFTISRDNAKNTVYLQMNSLKPEDTAVYYCATEDFRTDTGMYYWGQGTQVTVSS | low polyreactivity
QVQLVESGGGLVQAGGSLRLSCAASGGTFGVNAMGWYRQAPGKERELVAAISSSGGRTYYADSVKGRFTISRDNAKNTVFLQMNSLKPEDTAVYYCAARNYFWGQGTQVTVSS | low polyreactivity
QVQLVESGGGLFQAGGSLRLSCAPSGRIFRYNAMGWYRQAPGKERELVASISGSGGSTYYADSVKGRFTISRDNAKNTVYLQMNSLTPEDTAVYYCAAQWRYQYPESLESYYWGQGTQVTVSS | high polyreactivity
QVQLVESGGGLVQAGGSLRLSCAASGVIFTFYAMGWYRQAPGKEREFVASIDWGDGSTYYADSVKGRFTISRDNAKNTVYLQMNSLKPEDTAVYYCAHDSDGYVCDTEYDYWGQGTQVTVSS | low polyreactivity
QVQLVESGGGLVQAGGSLRLSCAASGRIFTRNGMGWYRQAPGKERELVAASTRGGRTNYADSVKGRFTISRDNAKNTVYLQMNSLKPEDTAVYYCAAGFPWSYYGSYDYWGQGTQVTVSS | high polyreactivity
QVQLVESGGGLVQAGGSLRLSCAASGRISKGYAMGWYRQAPGKERELVAAISWRTSSTYYADSVKGRFTISRDNAKNTVYLQMNSLKPEVTAVYYCAAETWLGSWRQVGMDYWGQGTQVTVSS | high polyreactivity
QVQLVESGGGLVQAGCSLRLICAAAGIIFSSYAMGWYRQAPGKERELVAAISWNGGRTYYADSVKGRFTISRDNAKNTVYLQMNSLKPEDTAVYYCAAPHSVPDLHSGDYWGQGTQVTVSS | low polyreactivity
QVRLVESGGGLVQAGGSLRLSCAASGSIFAPYAMGWYRQAPGKERELVATIRTTGDSTYYADSVKGRFTISRDNAKNTVYLQMNSLKPEDTAVYYCAKSEPLVVGVSPWYQVDYCGQGTQVTVSS | low polyreactivity

Sequence | polyreactivity (PSR sort gate)
QVQLVESGGGLVQAGGSLRLSCAASGFILYYYAKGWYRPAPGKERELVAAISWSGDSTYYADSVKGRFTISRDNAKNTVYLQMNSLKPEDTAVYYCAATWQLTHRYYWGQGTQVTVSS | low polyreactivity
QVQLVESGGGLVQAGGSLRLSCAASGGIIEDNMGWYRQAPGKERELVAAIDLRADSTYYADSVKGRFTISRDNAKNTVYLQMNSLKPEDTAVYYCAAGARQGVYRGGDYWGQGTQVTVSS | low polyreactivity
QVQRVESGGGLVQAGGSLRLSCAASASIFASYAMGWYRQAPGKERELVASISRGGGTTYADSVKGRFTISRDNAKNTVYLQMNSLKPDDTAVYYCAARKVIRYRPYGYWGQGTQVTVSS | high polyreactivity
QVQLVESGGGLVQAGGSLRLSCAASGFTFVYYAMGWYRQAPGKERELVAAISGRGGSTYYADSVKGRFTISRDNAKNTVYLQMNSLKPEDTAVYYCATTYSWYYVPYKPHIYYYWGQGTQVTVSS | low polyreactivity
QVQLVESGGGLVQAGGSLRLSCAASGSIFWPYTMGWSRQAPGKECELVAAITSTDSTDYADSVKGRFTISRDNAKNTVYLQMNSLKPEDTAVYYCNADYQSRTGSGIYTDHPYDYWGQGTQVTVSS | low polyreactivity
QVQLVESGGGLVHAGGSLRLSCAASGRTFCGYAMGRYRHAPGKERELVATNSYSSGSTYYADSVKGRFTISRDNAMNTVYLQMNSLTPEDTAVYYCAARIRYFYRYDYWGQGTQVTVSS | high polyreactivity
QVQLVESGGGLVQAGGSLRLSCAASGFTFYPYAMGWYRQAPGKERELVAASTASGGSTYYADSVKGRFTISRDNAKNTVYLQMNSLKPEDTAVFYCAKGWVSYWRYKNEYWGQGTQVTVSS | high polyreactivity
QVQLVESGGGLVQAGGTLRLSCAASGFIFTRYAMGWYSQAPGKERELVAAIKLSGTSTYYADSVKGRFTISRDNAKYTVYLQMNSLKPEDSAVYYCAATSSYIYPYGYWGQGTQVTVSS | high polyreactivity
QVQLVESGGGLVQAGGSLRLICAASGRTFGSNAMGWYTQAPGKERELVAAIRERGGSTYADSVKGRFTISRDNAKNTVYLQMNCLKQEDTAVYYCNAVYVRSSLYYTGWSTFYYWGQGTQVTVSS | low polyreactivity
QVQLVESGGGLVQAGGSLRLSCAASGIIFYRYAMGWYRQAPGKERELVARITYNGGRTYYADSVKGRFTISRDNAKKTVYLQMNSLKPEDSAVYYCAARGHGGYYYWGQGTQVTVSS | high polyreactivity
QVQLVESGGGLVQAGGSLRLSCAASGSIFSQYAMGWYRQAPGKERELVAAISASGGRTYYADSVKGRFTISRDNAKNTVYLQMNSLKPEDTAVYYCNAAHGSNRYSFVNPFYYWGQGTQVTVSS | high polyreactivity
QVQLVESGGGLVQAGGSLRLSCAASGSIFSQYAMGCYREAPGKERELVAAISSSGDSTNYADSVKGRFTISRDNAKNTVYLQMNSLKPEDTGVYDCAADPYYFYIWYWWPSFDYWGQGTQVTVSS | low polyreactivity
QVQLVESGGGLVQAGGSLRLSCAASGRIFWINAMGWYRQAPGKERELVAAITTDGGTTYYADSVKGRFTISRDNAKNTVYLQMNSLKPEDTAVYYCAADAAGQYWWQTYDYWGQGTQVTVSS | high polyreactivity
QVQLVESGGGLVQAGGSLRLSCAASGLTFADNTMGWYRQAPGKERELVAAIDWSGGGTDYADSVKGRFTISRDNAKNTDYLQMNSLKPEDTAVYYCNAERTSWEDDYWGQGTQVTVSS | low polyreactivity
QVQLVESGGGLVQAGGSLRLSCAASGITFYFYAMGWYRQAPGKERELVASITSSGSTDYADSVKGRFTISRDNAKNTVYLQMNSLKPEDTAVYYCAADVQNHFYSFGDERGFPFDYWGQGTQVTVSS | low polyreactivity
